We go through 3 substances from patent publication US8722052B2, “Vaccinia virus protein A46 peptide and use thereof” (priority 2008, dated 2014).

“Also recorded” adds a separate entry of the source. Square brackets hold non-standard residues; d marks the D form. Ends that are not written are not given here.

This experiment deals with T1, TLR4 (Mus musculus, UniProt Q9QUK6).
T1 sequence (Q9QUK6 26-835): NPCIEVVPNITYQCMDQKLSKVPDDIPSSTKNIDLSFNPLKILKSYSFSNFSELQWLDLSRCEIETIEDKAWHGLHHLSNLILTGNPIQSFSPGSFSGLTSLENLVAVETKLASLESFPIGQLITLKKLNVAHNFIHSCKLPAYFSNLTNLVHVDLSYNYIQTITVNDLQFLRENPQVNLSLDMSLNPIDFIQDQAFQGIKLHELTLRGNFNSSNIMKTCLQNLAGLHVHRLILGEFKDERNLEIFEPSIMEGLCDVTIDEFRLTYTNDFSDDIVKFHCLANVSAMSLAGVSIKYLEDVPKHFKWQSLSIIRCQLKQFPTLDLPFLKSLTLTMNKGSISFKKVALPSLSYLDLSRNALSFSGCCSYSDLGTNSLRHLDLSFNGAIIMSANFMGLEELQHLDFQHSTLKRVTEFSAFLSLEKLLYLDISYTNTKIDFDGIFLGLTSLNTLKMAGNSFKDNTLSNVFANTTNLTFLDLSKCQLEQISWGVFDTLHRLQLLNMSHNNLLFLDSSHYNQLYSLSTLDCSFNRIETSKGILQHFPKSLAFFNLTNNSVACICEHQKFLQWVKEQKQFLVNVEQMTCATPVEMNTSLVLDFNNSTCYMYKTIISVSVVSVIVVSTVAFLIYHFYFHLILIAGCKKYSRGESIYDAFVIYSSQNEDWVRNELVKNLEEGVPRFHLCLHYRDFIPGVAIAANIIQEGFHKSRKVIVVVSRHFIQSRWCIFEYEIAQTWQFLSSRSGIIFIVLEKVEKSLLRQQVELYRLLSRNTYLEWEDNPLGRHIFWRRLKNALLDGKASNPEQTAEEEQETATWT
T1 sequence (Q9JHF9 19-160 partner): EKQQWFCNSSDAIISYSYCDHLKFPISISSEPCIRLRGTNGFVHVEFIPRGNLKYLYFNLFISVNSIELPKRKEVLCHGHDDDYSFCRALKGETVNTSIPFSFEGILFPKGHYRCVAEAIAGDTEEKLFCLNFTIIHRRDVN
In words: LPS-induced TNFα in immortalised murine macrophages, ELISA. The settings on record: peptide 1, 5 or 25 μM 1 h before 10 ng/ml LPS, 6 h. In kind it is cell-based. The arrangement: endogenous in cells; immortalised murine bone-marrow-derived macrophages. As for the experimental part:
FIGS. 14A and B are bar charts showing the comparison of the inhibitory effect of the L- and D-forms of A464 on LPS-induced TNFα in primary human and murine cells. PBMC (1×10^6 cells/ml, (A)) or immortalised murine macrophages (1.5×10^5 cells/ml, (B)) were seeded in 96 well plates 24 hours before treatment. L-form and D-form A464 peptides (with the 9R delivery peptide on the C-terminus, SEQ ID NO. 20) were added to the cells at a concentration of 1, 5 or 25 μM 1 hour before stimulating with 10 ng/ml LPS. Supernatants were collected 6 hours after stimulation and assayed for either human (A) or murine (B) TNFα production by ELISA. No peptides were added to the control wells (black bars). Data is representative of at least three experiments each performed in triplicate and is expressed as mean±s.d;
FIGS. 15A and B are bar charts showing the effect of the D-form A464 peptide with the TAT delivery sequence on LPS induced TNFα in primary human and murine cells. PBMC (A) and immortalised murine macrophages (B) were seeded in 96 well plates 24 hours before treatment. D-form of A467 (SEQ ID NO. 37) and A464 (SEQ ID NO. 36) with the TAT delivery sequence were added to the cells at a concentration of 1, 5 or 25 μM 1 hour before stimulating with 10 ng/ml LPS. The peptides were added into the unstimulated control wells at 25 μM. Supernatants were collected 6 hours after stimulation and assayed for either human (A) or murine (B) TNFα production by ELISA. No peptides were added to the control wells (black bars). Data is representative of at least three experiments each performed in triplicate and is expressed as mean±s.d;
FIGS. 16A and B are bar charts showing the effect of attaching 9R to the N-terminus of A464 on LPS-induced TNFα in primary human and murine cells. Immortalised murine macrophages (A) and PBMC (B) were seeded in 96 well plates 24 hours before treatment. L-form of A467 (SEQ ID NO. 39) and A464 (SEQ ID NO. 38) with the 9R-delivery sequence at the N-terminus were added to the cells at a concentration of 1, 5 or 25 μM 1 hour before stimulating with 10 ng/ml LPS. The peptides were added into the unstimulated control wells at […]. Supernatants were collected 6 hours after stimulation and assayed for either murine (A) or human (B) TNFα production by ELISA. No peptides were added to the control wells (black bars). Data is representative of at least three experiments each performed in triplicate and is expressed as mean±s.d;
FIGS. 17A and B are bar charts showing the effect of the D-form A464 with 9R at the N-terminus on LPS-induced TNFα in primary human and murine cells. Immortalised murine macrophages (A) and PBMC (B) were seeded in 96 well plates 24 hours before treatment. D-form of A467 (SEQ ID NO. 39) and A464 (SEQ ID NO. 38) peptides with the 9R-delivery sequence at N-terminus were added to the cells at a concentration of 1, 5 or 25 μM 1 hour before stimulating with 10 ng/ml LPS. The peptides were added into the unstimulated control wells at 25 μM. Supernatants were collected 6 hours after stimulation and assayed for either murine (A) or human (B) TNFα production by ELISA. No peptides were added to the control wells (black bars). Data is representative of at least three experiments each performed in triplicate and is expressed as mean±s.d;
FIGS. 18A and B are bar charts showing the effect of shortened A464 peptides with deletions of N- and C-terminal amino acids on LPS-induced TNFα in murine macrophages. Immortalised murine macrophages were seeded in 96 well plates (1.5×10^5 cells/ml) 24 hours before treatment. A464 peptides with a deletion of one (N-1) (SEQ ID NO. 40) or two (N-2) (SEQ ID NO. 41) amino acids from the N-terminus (A), or three (C-3) (SEQ ID NO. 42) or six (C-6) (SEQ ID NO. 43) amino acids from the C-terminus (B), were added to the cells at a concentration of 1, 5 or 25 μM 1 hour before stimulating with 10 ng/ml LPS. Peptides were added to the control wells at 25 μM. […]

For the substance “9RN-A464 (RRRRRRRRRKYSFKLILAEY) [Peptide 9RN-A464]”, the “inhibition of LPS-induced mTNFα production” value (“inhibition” for short) is “complete inhibition was observed at 1 μM”.

For “D-9RN-A464 ([dR][dR][dR][dR][dR][dR][dR][dR][dR][dK][dY][dS][dF][dK][dL][dI][dL][dA][dE][dY]) [Peptide D-9RN-A464]”, the “inhibition” value is recorded as “no inhibition at 1 μM”. In the case of KYSFKLILAEYRRRRRRRRR [Peptide A464], the “inhibition” value is given as “significant inhibition of TLR4 by A464 (SEQ ID No. 20) at 1 μM; also recorded: complete inhibition at 1”.
